Experimental data reported in publication PMC9686918 (2022).

Assays:
[1] = target: T1, Methylglyoxal-modified human serum albumin (HSA-MG) (Homo sapiens, UniProt P02768); assay: chlorinating activity inhibition (celestine blue B, NaCl varied)
[2] = target: T1, Methylglyoxal-modified human serum …; assay: ELISA (Scatchard plot)
[3] = target: T1, Methylglyoxal-modified human serum …; assay: peroxidase activity inhibition (ABTS, H2O2 varied)
[4] = target: T1, Methylglyoxal-modified human serum …; assay: peroxidase activity inhibition (ABTS varied)
[5] = target: T1, Methylglyoxal-modified human serum …; assay: chlorinating activity inhibition (celestine blue B, H2O2 varied)

Ki [1]: 940 nM | Kd [2]: 1.5 nM | Ki [3]: 840 nM | Ki [4]: 1080 nM | Ki [5]: 800 nM
B1: Myeloperoxidase (protein)
chain: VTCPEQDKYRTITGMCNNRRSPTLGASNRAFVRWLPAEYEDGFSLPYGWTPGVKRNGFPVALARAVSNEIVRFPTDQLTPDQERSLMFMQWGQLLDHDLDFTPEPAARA
modifications: methylglyoxal-modified HSA
